Paper PMC2173747 (The Journal of Cell Biology, 2003)

Biological target: purified human gelsolin (human, UniProt P06396 28-782)
Assay: ELISA

Chain of purified human gelsolin (P06396 28-782): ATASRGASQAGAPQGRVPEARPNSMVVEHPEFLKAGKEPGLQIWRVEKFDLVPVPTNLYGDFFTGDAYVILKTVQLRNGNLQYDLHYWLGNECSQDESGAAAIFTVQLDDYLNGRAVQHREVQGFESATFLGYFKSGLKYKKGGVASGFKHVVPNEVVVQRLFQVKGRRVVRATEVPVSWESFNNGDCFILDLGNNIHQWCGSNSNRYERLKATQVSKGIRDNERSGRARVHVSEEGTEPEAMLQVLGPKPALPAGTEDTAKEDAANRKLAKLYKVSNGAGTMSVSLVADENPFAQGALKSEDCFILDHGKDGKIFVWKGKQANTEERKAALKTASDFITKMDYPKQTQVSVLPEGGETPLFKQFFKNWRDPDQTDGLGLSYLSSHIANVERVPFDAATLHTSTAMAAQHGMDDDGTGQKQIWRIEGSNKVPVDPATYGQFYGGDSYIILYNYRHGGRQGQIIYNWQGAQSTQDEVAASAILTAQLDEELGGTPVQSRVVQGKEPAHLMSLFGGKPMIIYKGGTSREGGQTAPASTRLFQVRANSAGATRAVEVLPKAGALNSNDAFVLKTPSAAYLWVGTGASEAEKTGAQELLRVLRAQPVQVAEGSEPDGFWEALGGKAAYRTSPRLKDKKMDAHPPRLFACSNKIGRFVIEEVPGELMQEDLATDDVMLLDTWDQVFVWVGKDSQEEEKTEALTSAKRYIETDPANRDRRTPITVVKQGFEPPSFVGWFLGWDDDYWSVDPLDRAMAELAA

B1: GST-PYK2Δ1–781 (domain or fragment)
chain: EEDFIQPSSREEAQQLWEAEKVKMRQILDKQQKQMVEDYQWLRQEEKSLDPMVYMNDKSPLTPEKEVGYLEFTGPPQKPPRLGAQSIQPTANLDRTDDLVYLNVMELVRAVLELKNELCQLPPEGYVVVVKNVGLTLRKLIGSVDDLLPSLPSSSRTEIEGTQKLLNKDLAELINKMRLAQQNAVTSLSEECKRQMLTASHTLAVDAKNLLDAVDQAKVLANLAHPPAE
EC50: 30 ± 4 nM
